Patent US20110123544A1 (published 2011)

How the values were obtained:
recombinant rhesus IL-12 = target: T1, recombinant rhesus IL-12 (rhesus monkey, UniProt P48095 23-328; P48091 23-219); assay: neutralisation bioassays with purified rhesus IL-12
T1 construct: Obtained from Emory University School of Medicine
T1 sequence (looked up) 1: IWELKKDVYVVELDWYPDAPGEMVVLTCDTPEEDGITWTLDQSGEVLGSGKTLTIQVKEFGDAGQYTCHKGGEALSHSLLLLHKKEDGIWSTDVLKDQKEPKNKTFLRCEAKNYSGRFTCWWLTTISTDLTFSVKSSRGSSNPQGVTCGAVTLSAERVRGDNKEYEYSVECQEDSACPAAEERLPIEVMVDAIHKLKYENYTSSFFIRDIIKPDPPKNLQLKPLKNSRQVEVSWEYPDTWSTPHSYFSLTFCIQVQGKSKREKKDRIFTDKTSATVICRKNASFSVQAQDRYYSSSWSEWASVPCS
T1 sequence (looked up) 2: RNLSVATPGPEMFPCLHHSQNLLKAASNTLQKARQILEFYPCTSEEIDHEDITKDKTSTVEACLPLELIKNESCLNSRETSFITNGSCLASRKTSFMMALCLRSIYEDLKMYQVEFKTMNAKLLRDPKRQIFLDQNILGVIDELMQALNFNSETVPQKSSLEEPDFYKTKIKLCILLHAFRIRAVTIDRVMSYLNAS

recombinant murine IL-12 = target: T2, recombinant murine IL-12 (mouse, UniProt P43432 23-335; P43431 23-215); assay: neutralisation bioassay with purified murine IL-12 (2D6 cell proliferation)
T2 construct: R&D Systems Cat. No. 419-ML in the BIAcore test; 'purified murine IL-12' in the bioassays; also called mouse IL-12; rmIL12
T2 sequence (looked up) 1: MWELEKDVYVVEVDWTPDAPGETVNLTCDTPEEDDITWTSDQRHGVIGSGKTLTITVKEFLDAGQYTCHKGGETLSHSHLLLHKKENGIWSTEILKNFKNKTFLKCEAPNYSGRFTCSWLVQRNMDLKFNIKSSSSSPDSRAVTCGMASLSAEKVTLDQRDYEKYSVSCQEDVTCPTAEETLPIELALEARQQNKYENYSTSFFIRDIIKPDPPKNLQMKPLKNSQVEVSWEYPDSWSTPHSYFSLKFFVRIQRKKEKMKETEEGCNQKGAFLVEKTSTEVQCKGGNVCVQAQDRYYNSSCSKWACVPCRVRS
T2 sequence (looked up) 2: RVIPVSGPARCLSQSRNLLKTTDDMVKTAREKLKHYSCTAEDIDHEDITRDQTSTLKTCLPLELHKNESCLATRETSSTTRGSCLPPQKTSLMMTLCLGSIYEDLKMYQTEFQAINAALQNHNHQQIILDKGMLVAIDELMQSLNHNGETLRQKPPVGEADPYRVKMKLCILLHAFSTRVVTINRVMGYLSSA

B1: J695 human anti-human IL-12 antibody (antibody, V domains shown)
VH: QVQLVESGGGVVQPGRSLRLSCAASGFTFSSYGMHWVRQAPGKGLEWVAFIRYDGSNKYYADSVKGRFTISRDNSKNTLYLQMNSLRAEDTAVYYCKTHGSHDNWGQGTMVTVSS
VL: QSVLTQPPSVSGAPGQRVTISCSGSRSNIGSNTVKWYQQLPGTAPKLLIYYNDQRPSGVPDRFSGSKSGTSASLAITGLQAEDEADYYCQSYDRYTHPALLFGTGTKVTVLG
notes: tested as human IgG1 with lambda light chain (detected with anti-human lambda); Made in CHO or COS cells; also called Y61-L94Y-L50Y IgG
B1: binds (recombinant rhesus IL-12); no binding (recombinant murine IL-12).
